In patent US20220380471A1:
Numbering of substitutions follows the chain as printed.

Columns and labels:
monkey B7H3-His (monkey) [1] = assay: ELISA; row Monkey; well 3 of 3
mouse B7H3-His (mouse) [2] = target: T1, mouse B7H3-His (mouse) (UniProt Q8VE98); assay: ELISA; row Mouse-2 (mB7H3); well 2 of 3
T1 sequence (looked up): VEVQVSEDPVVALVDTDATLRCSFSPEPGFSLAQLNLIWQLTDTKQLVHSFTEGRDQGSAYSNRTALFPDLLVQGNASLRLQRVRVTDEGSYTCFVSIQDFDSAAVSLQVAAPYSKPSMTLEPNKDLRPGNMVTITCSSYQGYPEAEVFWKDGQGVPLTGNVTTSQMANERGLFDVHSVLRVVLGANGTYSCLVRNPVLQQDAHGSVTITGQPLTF

mouse B7H3-His (mouse) [3] = target: T1, mouse B7H3-His (mouse); assay: ELISA; row Mouse-2 (mB7H3); well 3 of 3
B7H3 R&D [4] = assay: ELISA; row B7H3 R&D; well 2 of 3
hB7H3-His (human) [5] = target: hB7H3-His (human) (UniProt Q5ZPR3); assay: ELISA; row B7H3-his; well 2 of 3
rat B7H3-His (rat) [6] = target: T2, rat B7H3-His (rat) (UniProt Q7TPB4); assay: ELISA; row Rat; well 1 of 3
T2 sequence (looked up): T1 sequence (looked up) with A33R, S62A, N131D, V156L, L214M

mouse B7H3-His (mouse) [7] = target: T1, mouse B7H3-His (mouse); assay: ELISA; row Mouse-1 (msB7H3); well 1 of 3
Irrelevant antigen [8] = assay: ELISA; row Irrelevant antigen; well 1 of 3
human B7H3 (human) [9] = target: human B7H3 (human) (UniProt Q5ZPR3); assay: ELISA; row Human; well 2 of 3
rat B7H3-His (rat) [10] = target: T2, rat B7H3-His (rat); assay: ELISA; row Rat; well 2 of 3
Irrelevant antigen [11] = assay: ELISA; row Irrelevant antigen; well 2 of 3
Irrelevant antigen [12] = assay: ELISA; row Irrelevant antigen; well 3 of 3
PD-L1 [13] = assay: ELISA; row PDL1-Fc; well 3 of 3
[14] = target: recombinant human B7H3-Fc protein (human) (UniProt Q5ZPR3); assay: ELISA; row B7H3-Fc; well 2 of 3
rat B7H3-His (rat) [15] = target: T2, rat B7H3-His (rat); assay: ELISA; row Rat; well 3 of 3
mouse B7H3-His (mouse) [16] = target: T1, mouse B7H3-His (mouse); assay: ELISA; row Mouse-1 (msB7H3); well 2 of 3
PD-L1 [17] = assay: ELISA; row PDL1-Fc; well 1 of 3
hB7H3-His (human) [18] = target: hB7H3-His (human) (UniProt Q5ZPR3); assay: ELISA; row B7H3-his; well 1 of 3
B7H3 R&D [19] = assay: ELISA; row B7H3 R&D; well 1 of 3
[20] = target: recombinant human B7H3-Fc protein (human) (UniProt Q5ZPR3); assay: ELISA; row B7H3-Fc; well 3 of 3
monkey B7H3-His (monkey) [21] = assay: ELISA; row Monkey; well 1 of 3
human B7H3 (human) [22] = target: human B7H3 (human) (UniProt Q5ZPR3); assay: ELISA; row Human; well 3 of 3
mouse B7H3-His (mouse) [23] = target: T1, mouse B7H3-His (mouse); assay: ELISA; row Mouse-2 (mB7H3); well 1 of 3
PD-L1 [24] = assay: ELISA; row PDL1-Fc; well 2 of 3
human B7H3 (human) [25] = target: human B7H3 (human) (UniProt Q5ZPR3); assay: ELISA; row Human; well 1 of 3
monkey B7H3-His (monkey) [26] = assay: ELISA; row Monkey; well 2 of 3
B7H3 R&D [27] = assay: ELISA; row B7H3 R&D; well 3 of 3
[28] = target: recombinant human B7H3-Fc protein (human) (UniProt Q5ZPR3); assay: ELISA; row B7H3-Fc; well 1 of 3
hB7H3-His (human) [29] = target: hB7H3-His (human) (UniProt Q5ZPR3); assay: ELISA; row B7H3-his; well 3 of 3
HN3-Fc [30] = assay: ELISA; row HN3-Fc; well 3 of 3
mouse B7H3-His (mouse) [31] = target: T1, mouse B7H3-His (mouse); assay: ELISA; row Mouse-1 (msB7H3); well 3 of 3
HN3-Fc [32] = assay: ELISA; row HN3-Fc; well 2 of 3
HN3-Fc [33] = assay: ELISA; row HN3-Fc; well 1 of 3

Sequence of hB7H3-His (human) (Q5ZPR3 29-461 limits assumed): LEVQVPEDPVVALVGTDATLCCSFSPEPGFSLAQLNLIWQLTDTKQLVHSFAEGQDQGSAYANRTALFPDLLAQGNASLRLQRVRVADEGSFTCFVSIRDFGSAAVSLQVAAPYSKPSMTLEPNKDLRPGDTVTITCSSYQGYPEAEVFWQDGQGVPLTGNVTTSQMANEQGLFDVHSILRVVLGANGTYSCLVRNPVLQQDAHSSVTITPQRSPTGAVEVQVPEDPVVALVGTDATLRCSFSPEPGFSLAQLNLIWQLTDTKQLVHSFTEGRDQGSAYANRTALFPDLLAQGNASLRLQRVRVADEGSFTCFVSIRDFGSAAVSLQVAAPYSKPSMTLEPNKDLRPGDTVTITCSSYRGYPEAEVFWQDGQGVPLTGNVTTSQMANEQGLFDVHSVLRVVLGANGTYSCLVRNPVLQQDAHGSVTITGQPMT
Sequence of PD-L1 (Q9NZQ7 19-238): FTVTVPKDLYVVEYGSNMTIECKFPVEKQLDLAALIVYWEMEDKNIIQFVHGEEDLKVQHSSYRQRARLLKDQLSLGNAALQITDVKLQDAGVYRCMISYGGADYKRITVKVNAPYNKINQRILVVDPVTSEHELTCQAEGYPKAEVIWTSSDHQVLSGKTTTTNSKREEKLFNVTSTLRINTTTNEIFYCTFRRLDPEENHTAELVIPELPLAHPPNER
Sequence of recombinant human B7H3-Fc protein (human) (Q5ZPR3 29-466 limits assumed): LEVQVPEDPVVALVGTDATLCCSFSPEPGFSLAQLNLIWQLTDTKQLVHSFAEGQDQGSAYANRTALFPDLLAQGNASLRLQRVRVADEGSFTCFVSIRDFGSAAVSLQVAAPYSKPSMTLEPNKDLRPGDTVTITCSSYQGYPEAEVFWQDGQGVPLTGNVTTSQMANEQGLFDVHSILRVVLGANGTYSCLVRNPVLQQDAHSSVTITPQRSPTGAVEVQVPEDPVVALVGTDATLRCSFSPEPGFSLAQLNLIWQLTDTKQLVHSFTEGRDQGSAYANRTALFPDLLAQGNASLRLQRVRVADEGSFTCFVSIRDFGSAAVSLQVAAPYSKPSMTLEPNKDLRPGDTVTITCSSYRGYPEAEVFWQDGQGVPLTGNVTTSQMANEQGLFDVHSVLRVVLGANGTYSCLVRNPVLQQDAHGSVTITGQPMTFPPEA
Sequence of human B7H3 (human) (Q5ZPR3 29-466 limits assumed): as above

ELISA reading (name not given) (monkey B7H3-His (monkey) [1]): 1.65
ELISA reading (name not given) (mouse B7H3-His (mouse) [2]): 0.145
ELISA reading (name not given) (mouse B7H3-His (mouse) [3]): 0.184
ELISA reading (name not given) (B7H3 R&D [4]): 0.993
ELISA reading (name not given) (hB7H3-His (human) [5]): 0.812
ELISA reading (name not given) (rat B7H3-His (rat) [6]): 0.981
ELISA reading (name not given) (mouse B7H3-His (mouse) [7]): 0.14
ELISA reading (name not given) (Irrelevant antigen [8]): 0.0531
ELISA reading (name not given) (human B7H3 (human) [9]): 1.57
ELISA reading (name not given) (rat B7H3-His (rat) [10]): 1.01
ELISA reading (name not given) (Irrelevant antigen [11]): 0.0634
ELISA reading (name not given) (Irrelevant antigen [12]): 0.0624
ELISA reading (name not given) (PD-L1 [13]): 0.0749
ELISA reading (name not given) [14]: 1.59
ELISA reading (name not given) (rat B7H3-His (rat) [15]): 1.06
ELISA reading (name not given) (mouse B7H3-His (mouse) [16]): 0.156
ELISA reading (name not given) (PD-L1 [17]): 0.0652
ELISA reading (name not given) (hB7H3-His (human) [18]): 0.811
ELISA reading (name not given) (B7H3 R&D [19]): 0.991
ELISA reading (name not given) [20]: 1.59
ELISA reading (name not given) (monkey B7H3-His (monkey) [21]): 1.59
ELISA reading (name not given) (human B7H3 (human) [22]): 1.44
ELISA reading (name not given) (mouse B7H3-His (mouse) [23]): 0.157
ELISA reading (name not given) (PD-L1 [24]): 0.0812
ELISA reading (name not given) (human B7H3 (human) [25]): 1.48
ELISA reading (name not given) (monkey B7H3-His (monkey) [26]): 1.59
ELISA reading (name not given) (B7H3 R&D [27]): 1.07
ELISA reading (name not given) [28]: 1.61
ELISA reading (name not given) (hB7H3-His (human) [29]): 0.813
ELISA reading (name not given) (HN3-Fc [30]): 0.0521
ELISA reading (name not given) (mouse B7H3-His (mouse) [31]): 0.133
ELISA reading (name not given) (HN3-Fc [32]): 0.0541
ELISA reading (name not given) (HN3-Fc [33]): 0.0545
Substance: commercial anti-human B7H3 hybridoma antibody 376.96
